In series [1] the target is T1, VvGT5 (Vitis vinifera, UniProt C7G3B5).
T1 sequence (C7G3B5 1-459): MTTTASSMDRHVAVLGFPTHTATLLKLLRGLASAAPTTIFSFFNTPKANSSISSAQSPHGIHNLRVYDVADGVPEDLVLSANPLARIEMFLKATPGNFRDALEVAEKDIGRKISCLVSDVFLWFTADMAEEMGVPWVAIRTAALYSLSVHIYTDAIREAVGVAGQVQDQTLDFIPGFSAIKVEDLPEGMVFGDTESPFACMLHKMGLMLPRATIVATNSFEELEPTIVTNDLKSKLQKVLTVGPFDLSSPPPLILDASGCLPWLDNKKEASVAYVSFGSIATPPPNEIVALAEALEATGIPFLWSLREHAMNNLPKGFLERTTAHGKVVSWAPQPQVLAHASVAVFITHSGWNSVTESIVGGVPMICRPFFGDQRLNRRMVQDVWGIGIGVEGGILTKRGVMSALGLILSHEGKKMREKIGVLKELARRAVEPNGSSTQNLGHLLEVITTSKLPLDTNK
Kind of series: Glycosyl donor specificity of VvGT5, product amount by HPLC. The class given is biochemical. To be noted: 100 µM quercetin, 1 mM glycosyl donor, pH 9.5, 30°C, 15 minutes. As for the experimental part: Next, the glycosyl donor specificity of this enzyme was examined. […] The reaction was started by adding the glycosyl acceptor. The reaction was stopped by adding an equal volume of 40% acetonitrile solution containing 0.1% TFA. After the reaction was stopped, the solution was centrifuged (15000 rpm, 2 mins., 4°C) and 100 µl of the resulting supernatant was provided for the HPLC analysis. The amounts of the products produced in the respective glycosyl donors were compared.

Series [2] has as its target T1, VvGT5. In words: Glycosyl acceptor specificity of VvGT5, product amount by HPLC. The class given is biochemical. Conditions: 100 µM glycosyl acceptor, 1 mM UDP-glucuronic acid, pH 9.5, 30°C, 15 minutes. As for the experimental part:
Next, the glycosyl acceptor specificity of this enzyme was examined. […] The reaction was started by adding the glycosyl acceptor. The reaction was stopped by adding an equal volume of 40% acetonitrile solution containing 0.1% TFA. After the reaction was stopped, the solution was centrifuged (15000 rpm, 2 mins., 4°C) and 100 µl of the resulting supernatant was provided for the HPLC analysis. The amounts of the products produced were compared for each glycosyl acceptor.
Anthocyanins were analyzed under the conditions below using the HPLC system described above. Conditions for the HPLC analysis of anthocyanins were as follows. Asahipak ODP-50 4E (4.6 x 250 mm, Showa Denko K.K.) as a column was used at room temperature. Moving phase A (0.5% TFA/H2O) and moving phase B (0.5% TFA/50% GH3CN) were used. Conditions for elution were as follows: Equilibration was performed with B30% for 3 minutes, followed by linear density gradients (B30%→B65%) for 15 minutes and (B65%→B100%) for further 1 minute, which was maintained for 5 minutes at B100%. Thereafter, the condition was again reverted to B30% to equilibrate for 10 minutes. The flow rate was 0.7 ml/min. Detection was performed at 520 nm. Under the conditions, standard pelargonidin, cyanidin and delphinidin were sequentially eluted in this order at retention times of approximately […], respectively.

Substrate in series [3]: O=C(O)[C@H]1O[C@H](OP(=O)(O)OP(=O)(O)OC[C@H]2O[C@@H](n3ccc(=O)[nH]c3=O)[C@H](O)[C@@H]2O)[C@H](O)[C@@H](O)[C@@H]1O
Kind of series: purified protein, by the assay type. Conditions: other: glycosyl donor; purified His-tagged VvGT5; pH 9.5; 30.0 °C.

Substrate in series [4]: O=c1c(O)c(-c2ccc(O)cc2)oc2cc(O)cc(O)c12
In words: Kinetic analysis of VvGT5 (Km, kcat). To be noted: other: glycosyl acceptor substrate; purified His-tagged VvGT5; pH 9.5; 30.0 °C. The class given is biochemical, Vitis vinifera.

Substrate in series [5]: O=c1c(O)c(-c2ccc(O)c(O)c2)oc2cc(O)cc(O)c12
Kind of series: Kinetic analysis of VvGT5 (Km, kcat). The class given is biochemical, Vitis vinifera. Conditions: other: glycosyl acceptor substrate; purified His-tagged VvGT5; pH 9.5; 30.0 °C.

Substrate in series [6]: COc1cc(-c2oc3cc(O)cc(O)c3c(=O)c2O)ccc1O
Kind of series: Kinetic analysis of VvGT5 (Km, kcat). The class given is biochemical, Vitis vinifera. To be noted: other: glycosyl acceptor substrate; purified His-tagged VvGT5; pH 9.5; 30.0 °C.

Consider `O=C(O)[C@H]1O[C@H](OP(=O)(O)OP(=O)(O)OC[C@H]2O[C@@H](n3ccc(=O)[nH]c3=O)[C@H](O)[C@@H]2O)[C@H](O)[C@@H](O)[C@@H]1O` [UDP-glucuronic acid], for which the “product formation with glycosyl donor” value at VvGT5 [1] was “the product was obtained only when UDP-glucuronic acid was used as the substrate”.
`O=c1c(O)c(-c2ccc(O)c(O)c2)oc2cc(O)cc(O)c12` [quercetin]: at VvGT5 [2], the “activity of VvGT5 on glycosyl acceptor” value was “highest activity”.

B1: VvGT5 (Vitis vinifera) (protein)
chain: T1 sequence (C7G3B5 1-459)
Consider B1, for which the Km in series [3] worked out at 17.7 µM; in series [4], 10.8 ± 0.4 µM; in series [5] it was 5.60 ± 1.76 µM; in series [6] it was 7.92 ± 0.32 µM. In addition, the kcat is 6.05 ± 0.05 s⁻¹ in series [4], 7.16 ± 0.37 s⁻¹ in series [5] and 0.413 ± 0.03 s⁻¹ in series [6].

For orientation: Km means the concentration of substrate that gives half-maximal velocity. What is called kcat is the number of substrate molecules converted per active site and unit of time at saturation.

The record behind these values is patent EP2390325A1, “FLAVONOID-3-GLUCURONYLTRANSFERASE AND POLYNUCLEOTIDE ENCODING SAME” (Suntory Holdings Limited, priority 2009, dated 2010).
